According to patent US20240287172A1 (SCIRHOM, published 2024):
Residue numbers refer to the chain shown, from its start.

Columns and labels:
miR2-FL-WT-FLAG = target: T1, miR2-FL-WT-FLAG (mouse, UniProt Q80WQ6 1-827); test: FACS, MEF-DKO-miR2-FL-WT-FLAG cells
T1 construct: on MEF-DKO cells
T1 sequence: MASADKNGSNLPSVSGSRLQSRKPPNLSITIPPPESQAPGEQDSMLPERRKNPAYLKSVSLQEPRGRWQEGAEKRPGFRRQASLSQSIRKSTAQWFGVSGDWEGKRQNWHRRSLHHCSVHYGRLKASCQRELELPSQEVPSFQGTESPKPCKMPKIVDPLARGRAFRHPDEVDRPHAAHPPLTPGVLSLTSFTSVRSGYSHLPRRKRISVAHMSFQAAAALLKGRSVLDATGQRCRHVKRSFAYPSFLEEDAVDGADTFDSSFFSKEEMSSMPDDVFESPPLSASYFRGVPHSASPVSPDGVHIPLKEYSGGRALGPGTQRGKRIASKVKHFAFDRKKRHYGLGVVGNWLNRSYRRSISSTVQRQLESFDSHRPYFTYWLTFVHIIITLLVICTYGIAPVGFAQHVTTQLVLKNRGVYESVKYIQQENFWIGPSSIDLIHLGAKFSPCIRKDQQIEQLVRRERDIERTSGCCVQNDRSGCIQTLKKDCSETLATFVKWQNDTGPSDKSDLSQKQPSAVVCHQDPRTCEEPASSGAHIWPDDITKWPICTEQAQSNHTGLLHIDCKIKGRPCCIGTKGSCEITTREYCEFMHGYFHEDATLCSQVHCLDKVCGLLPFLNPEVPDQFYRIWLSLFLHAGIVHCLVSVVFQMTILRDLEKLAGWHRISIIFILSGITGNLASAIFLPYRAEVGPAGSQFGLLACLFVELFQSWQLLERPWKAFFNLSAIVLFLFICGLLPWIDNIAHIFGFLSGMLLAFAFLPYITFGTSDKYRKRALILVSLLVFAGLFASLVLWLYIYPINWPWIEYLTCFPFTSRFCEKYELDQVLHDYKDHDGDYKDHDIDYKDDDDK
Procedure: In brief, immortalized MEF-DKO-EV control cells, MEF-DKO-hiR2-FL-WT-FLAG cells and MEF-DKO-miR2-FL-WT-FLAG cells were harvested with 10 mM EDTA in PBS, washed and resuspended in FACS buffer (PBS, 3% FBS, 0.05% sodium azide), and seeded in Nunc U-bottom 96-well plates (Thermo Fisher Scientific, USA) at approximately 3×10⁵ cells per well. To pellet cells and remove supernatants, the plates were centrifuged at 1,500 rpm and 4° C. for 3 minutes. For primary staining, cells were resuspended in 100 μl per well of either FACS buffer alone (controls), mouse monoclonal anti-FLAG IgG (Sigma-Aldrich, USA) at 3 μg/ml FACS buffer or the antibodies of the invention also at 3 μg/ml FACS buffer and incubated on ice for 1 hour. Afterwards, plates were centrifuged at 1,500 rpm and 4° C. for 3 minutes and washed twice with 200 μl per well of FACS buffer. For secondary staining, cells were spun down and resuspended in 100 μl per well of PE-conjugated goat anti-mouse IgG F(ab′)2 detection fragment (Dianova, Germany) diluted 1:100 in FACS buffer. Protected from light, the cell suspensions were incubated on ice for 1 hour. Plates were then centrifuged at 1,500 rpm and 4° C. for 3 minutes and washed three times with 200 μl per well of FACS buffer. Finally, cells were resuspended in 150 μl per well of FACS buffer and analyzed using a BD Accuri™ C6 Plus flow cytometer (Becton Dickinson, Germany).

[1] = target: T2, dog iRhom2 full length wild type, T7-tagged (dog, UniProt Q00M95 1-827); test: FACS, MEF-DKO cells; via representative antibody 16
T2 construct: whole, on cells; on MEF-DKO cells; also called Dog-iR2-FL-WT-T7
T2 sequence: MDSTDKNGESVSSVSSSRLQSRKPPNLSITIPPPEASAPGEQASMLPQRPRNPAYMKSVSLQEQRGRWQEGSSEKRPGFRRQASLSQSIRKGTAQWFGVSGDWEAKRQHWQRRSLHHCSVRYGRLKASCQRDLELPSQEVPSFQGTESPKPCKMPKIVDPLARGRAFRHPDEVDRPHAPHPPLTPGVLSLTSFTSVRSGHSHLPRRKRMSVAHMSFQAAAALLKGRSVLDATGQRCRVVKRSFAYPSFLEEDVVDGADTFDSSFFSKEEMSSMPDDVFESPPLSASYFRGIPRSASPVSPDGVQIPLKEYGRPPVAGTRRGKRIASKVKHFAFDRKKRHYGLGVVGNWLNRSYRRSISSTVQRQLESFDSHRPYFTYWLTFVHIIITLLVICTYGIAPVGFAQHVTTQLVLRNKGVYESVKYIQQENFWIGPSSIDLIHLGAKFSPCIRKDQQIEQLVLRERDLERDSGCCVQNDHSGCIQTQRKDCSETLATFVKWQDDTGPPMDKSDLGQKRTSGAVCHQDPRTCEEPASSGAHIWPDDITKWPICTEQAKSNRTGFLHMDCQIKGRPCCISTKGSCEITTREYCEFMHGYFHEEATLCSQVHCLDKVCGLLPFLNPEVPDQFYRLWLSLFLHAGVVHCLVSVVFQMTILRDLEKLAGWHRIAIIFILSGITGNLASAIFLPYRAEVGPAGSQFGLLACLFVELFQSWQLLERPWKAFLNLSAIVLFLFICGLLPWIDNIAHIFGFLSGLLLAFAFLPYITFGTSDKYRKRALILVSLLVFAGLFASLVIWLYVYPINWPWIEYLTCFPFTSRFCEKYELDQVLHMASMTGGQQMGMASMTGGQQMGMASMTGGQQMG
Procedure: In brief, immortalized MEF-DKO-EV control cells, MEF-DKO-rhesus-iR2-FL-WT-T7 cells, MEF-DKO-cyno-iR2-FL-WT-T7 cells, MEF-DKO-dog-iR2-FL-WT-T7 cells and MEF-DKO-rabbit-iR2-FL-WT-T7 cells, as well as their respective iRhom1 counterparts, were harvested with 10 mM EDTA in PBS, washed and resuspended in FACS buffer (PBS, 3% FBS, 0.05% sodium azide), and seeded in Nunc U-bottom 96-well plates (Thermo Fisher Scientific, USA) at approximately 3×10⁵ cells per well. To pellet cells and remove supernatants, the plates were centrifuged at 1,500 rpm and 4° C. for 3 minutes. For primary staining, cells were resuspended in 100 μl per well of either FACS buffer alone (controls), mouse monoclonal anti-T7 IgG (Merck Millipore, USA) at 3 μg/ml FACS buffer or the antibodies of the invention also at 3 μg/ml FACS buffer and incubated on ice for 1 hour.
Afterwards, plates were centrifuged at 1,500 rpm and 4° C. for 3 minutes and washed twice with 200 μl per well of FACS buffer. For secondary staining, cells were spun down and resuspended in 100 μl per well of PE-conjugated goat anti-mouse IgG F(ab′)2 detection fragment (Dianova, Germany) diluted 1:100 in FACS buffer. Protected from light, the cell suspensions were incubated on ice for 1 hour. Plates were then centrifuged at 1,500 rpm and 4° C. for 3 minutes and washed three times with 200 μl per well of FACS buffer. Finally, cells were resuspended in 150 μl per well of FACS buffer and analyzed using a BD Accuri™ C6 Plus flow cytometer (Becton Dickinson, Germany).

B1: antibody 51 (antibody, V domains shown)
VH: QVQLQQSGAELVKPGASVKISCKASGYTFSNYWMNWVKQRPGKGLEWIGQIYPGDGDTKYNGKFKNKATLTADKSSSTAYMQFSSLTSEDSAVYFCARGDLVFVYWGLGTLVTVSA
VL: DVQITQSPSYLAVSPGETITINCRASKNIRKYLAWYQEKPGKTNKLLIYSGSTSQSGVPSRFSGSGSGTDFTLTISSLEPEDFAMYYCQQHNEYPYTFGGGTKLEIK
notes: mouse IgG, kappa light chain; also called clone #51
**Q.** Does B1 bind (miR2-FL-WT-FLAG)?
**A.** no binding (tested: 3 µg/ml)

**Q.** Does B1 bind [1]?
**A.** binds

B2: antibody 54 (antibody, V domains shown)
VH: QVTLKESGPGILQPSQTLSLTCSFSGFSLSTFGLGVGWIRQPSGKGLECLAHIWWDDDKYSNPALKSRLTISKDTSKNQVFLKIANVDSADTATYFCARILNYGSNYWYFDVWGTGTTVTVSS
VL: QIVLTQSPALMSASPGEKVTMTCSASSSISYMYWYQQKPGSSPRLLIYDTSNLASGVPVRFSGSGSGTSFSLTVSRMEAEDAATYYCQQWNSYPLTFGAGTKLELK
notes: mouse IgG, kappa light chain; also called clone #54
**Q.** Does B2 bind (miR2-FL-WT-FLAG)?
**A.** no binding (tested: 3 µg/ml)

**Q.** Does B2 bind [1]?
**A.** binds

B3: antibody 48 (antibody, V domains shown)
VH: QVQLQQSGTELVRPGTSVKVSCKASGYAFTNYLIEWVKQRPGQGLEWIGVINPGSGFTKYNEKFKGKATLTADKSSSTVYMHLSSLTSEDSAVYFCARGLYRAMDYWGQGTSVTVSS
VL: DIQMTQSPASQSASLGESVTITCLASQTIATWLAWYQQKPGKSPQLLIYGATTLADGVPSRFSGGGSGTKFSFKISSLQAEDFVSYYCQQLYSTPYTFGGGTKLEIK
notes: mouse IgG, kappa light chain; also called clone #48; purified antibody 48
**Q.** What does the source list for B3?
**A.** binding result (miR2-FL-WT-FLAG): no binding (tested: 3 µg/ml); binding result [1]: binds

B4: antibody 47 (antibody, V domains shown)
VH: B3 VH with T9A, K59N, T69I, T71N, V79A, H82Q, S84I, G99D, Y101K, Y106H
VL: B3 VL with A30G, Y49H, G50A, T53S, G65S, L91I, T94S
notes: mouse IgG, kappa light chain; also called clone #47
**Q.** Does B4 bind (miR2-FL-WT-FLAG)?
**A.** no binding (tested: 3 µg/ml)

**Q.** Does B4 bind [1]?
**A.** binds

B5: antibody 50 (antibody, V domains shown)
VH: B3 VH with T9A, T16A, T30S, V79A, H82Q
VL: B3 VL with A30G, G50A, T52A, T53S, S85N, L91I
notes: mouse IgG, kappa light chain; also called clone #50; purified antibody 50
**Q.** Does B5 bind (miR2-FL-WT-FLAG)?
**A.** no binding (tested: 3 µg/ml)

**Q.** Does B5 bind [1]?
**A.** binds
